This is an account of results in paper PMC2064744 (The Journal of Cell Biology, 2007).

Assay [1] deals with T1, tandem PALS L27 domains.
T1 chain: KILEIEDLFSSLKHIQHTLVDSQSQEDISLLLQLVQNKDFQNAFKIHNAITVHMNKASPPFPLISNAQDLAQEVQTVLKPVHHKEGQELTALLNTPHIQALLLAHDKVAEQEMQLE
In words: SEC. On the technique in general: Size exclusion chromatography separates by hydrodynamic size, large species first.

In assay [2] the target is T2, tandem L27 domain of rat CASK (L27NL27C_CASK, residues 329-460) (rat, UniProt Q62915 329-460).
T2 sequence: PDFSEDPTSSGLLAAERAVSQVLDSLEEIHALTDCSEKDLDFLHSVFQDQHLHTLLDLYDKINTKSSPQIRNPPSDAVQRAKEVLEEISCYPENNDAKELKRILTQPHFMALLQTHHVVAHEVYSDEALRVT
In words: SEC.

B1: PATJ L27 (domain or fragment)
chain: MPENPAAEKMQVLQVLDRLRGKLQEKGDTTQNEKLSAFYETLKSPLFNQILTLQQSIKQLKGQLS
In the case of B1, the “stoichiometry N” value in assay [1] came out at 1.

B2: L27 domain of rat DLG (L27DLG, residues 1-65) (domain or fragment)
chain: MPVRKQDTQRALHLLEEYRSKLSQTEDRQLRSSIERVISIFQSNLFQALIDIQEFYEVTLLDNPK
Regarding B2, the “stoichiometry N” value in assay [2] stood at 1.

B3: L27 domain of mouse MALS (L27_MALS, residues 2-78) (domain or fragment)
chain: AALGEPVRLERDICRAIELLEKLQRSGEVPPQKLQALQRVLQSEFCNAVREVYEHVYETVDISSSPEVRANATAKAT
With B3, the “stoichiometry N” value in assay [2] was 1.

B4: MALS L27 (in the MALS/PALS/PATJ L27 complex, unpublished data) (domain or fragment)
chain: AALVEPLGLERDVSRAVELLERLQRSGELPPQKLQALQRVLQSRFCSAIREVYEQLYDTLDITGSAEVRAHATAKAT
For the molecule B4, the “stoichiometry N” value in assay [1] was found to be 1.

As usually defined, the stoichiometry N is the number of molecules, sites or subunits per partner or assembly.
